Laboratory results: patent US8461305B2, “L-fucose α1→6 specific lectin” (J-Oil Mills, Inc., priority 2008, dated 2013)

Assay: frontal affinity chromatography (FAC), association constant to PA sugar chains without L-fucose
Type: binding
Details: 25 degrees C.
In short: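 Lectin coupled via primary amines to NHS-activated sepharose in a miniature column, run in TBS (pH 7.4) at 0.125 ml/min and 25 degrees C. PA sugar chains (3.75 nM or 7.5 nM) applied in excess, with elution monitored by fluorescence (ex 310/em 380 nm). Ka calculated from front-end delay (V−Vo) versus PA rhamnose and effective ligand amount (Bt).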

[1] = Sugar chain No. 728 (as listed in Table 7)

Measured: association constant Ka

B1: Lens culinaris agglutinin (protein)
chain 1: TETTSFSITKFSPDQKNLIFQGDGYTTKGKLTLTKAVKSTVGRALYSTPIHIWDRDTGNVANFVTSFTFVIDAPSSYNVADEFTFFIAPVDTKPQTGGGYLGVFNSKEYDKTSQTVAVEFDTFYNAAWDPSNKERHIGIDVNSIKSVNTKSWNLQNGERANVVIAFNAATNVLTVTLTYP
chain 2: VTSYTLNEVVPLKDVVPEWVRIGFSATTGAEFAAHEVHSWSFHSELGGTSSS
25000 M⁻¹: Sugar chain No. 012
13000 M⁻¹: Sugar chain No. 010
14000 M⁻¹: Sugar chain No. 006 | Sugar chain No. 011
<1000 M⁻¹: Sugar chain No. 001 | Sugar chain No. 002 | Sugar chain No. 004 | Sugar chain No. 005 | Sugar chain No. 007 | Sugar chain No. 101 | Sugar chain No. 103 | Sugar chain No. 104 | Sugar chain No. 105 | Sugar chain No. 107 | Sugar chain No. 108 | Sugar chain No. 301 | Sugar chain No. 304 | Sugar chain No. 305 | Sugar chain No. 307 | Sugar chain No. 308 | Sugar chain No. 313 | Sugar chain No. 314 | Sugar chain No. 323 | Sugar chain No. 501 | Sugar chain No. 502 | Sugar chain No. 503 | Sugar chain No. 504 | Sugar chain No. 701 | Sugar chain No. 702 | Sugar chain No. 703 | Sugar chain No. 704 | Sugar chain No. 705 | Sugar chain No. 706 | Sugar chain No. 707 | Sugar chain No. 708 | Sugar chain No. 709 | Sugar chain No. 710 | Sugar chain No. 711 | Sugar chain No. 712 | Sugar chain No. 713 | Sugar chain No. 715 | Sugar chain No. 716 | Sugar chain No. 717 | Sugar chain No. 724 | Sugar chain No. 725 | [1] | Sugar chain No. 732 | Sugar chain No. 733 | Sugar chain No. 734 | Sugar chain No. 735 | Sugar chain No. 736 | Sugar chain No. 737 | Sugar chain No. 738 | Sugar chain No. 901 | Sugar chain No. 902 | Sugar chain No. 903 | Sugar chain No. 905 | Sugar chain No. 906 | Sugar chain No. 907
17000 M⁻¹: Sugar chain No. 013 | Sugar chain No. 014
18000 M⁻¹: Sugar chain No. 008 | Sugar chain No. 009
7200 M⁻¹: Sugar chain No. 003

B2: Aleuria aurantia lectin (protein)
chain: PTEFLYTSKIAAISWAATGGRQQRVYFQDLNGKIREAQRGGDNPWTGGSSQNVIGEAKLFSPLAAVTWKSAQGIQIRVYCVNKDNILSEFVYDGSKWITGQLGSVGVKVGSNSKLAALQWGGSESAPPNIRVYYQKSNGSGSSIHEYVWSGKWTAGASFGSTVPGTGIGATAIGPGRLRIYYQATDNKIREHCWDSNSWYVGGFSASASAGVSIAAISWGSTPNIRVYWQKGREELYEAAYGGSWNTPGQIKDASRPTPSLPDTFIAANSSGNIDISVFFQASGVSLQQWQWISGKGWSIGAVVPTGTPAGW
<1000 M⁻¹: Sugar chain No. 001 | Sugar chain No. 002 | Sugar chain No. 003 | Sugar chain No. 004 | Sugar chain No. 005 | Sugar chain No. 006 | Sugar chain No. 007 | Sugar chain No. 008 | Sugar chain No. 009 | Sugar chain No. 010 | Sugar chain No. 011 | Sugar chain No. 012 | Sugar chain No. 013 | Sugar chain No. 014 | Sugar chain No. 101 | Sugar chain No. 103 | Sugar chain No. 104 | Sugar chain No. 105 | Sugar chain No. 107 | Sugar chain No. 108 | Sugar chain No. 301 | Sugar chain No. 304 | Sugar chain No. 305 | Sugar chain No. 307 | Sugar chain No. 308 | Sugar chain No. 313 | Sugar chain No. 314 | Sugar chain No. 323 | Sugar chain No. 501 | Sugar chain No. 502 | Sugar chain No. 503 | Sugar chain No. 504 | Sugar chain No. 701 | Sugar chain No. 702 | Sugar chain No. 703 | Sugar chain No. 704 | Sugar chain No. 705 | Sugar chain No. 706 | Sugar chain No. 707 | Sugar chain No. 708 | Sugar chain No. 709 | Sugar chain No. 710 | Sugar chain No. 711 | Sugar chain No. 712 | Sugar chain No. 713 | Sugar chain No. 715 | Sugar chain No. 716 | Sugar chain No. 717 | Sugar chain No. 724 | Sugar chain No. 725 | [1] | Sugar chain No. 732 | Sugar chain No. 733 | Sugar chain No. 734 | Sugar chain No. 735 | Sugar chain No. 736 | Sugar chain No. 737 | Sugar chain No. 738 | Sugar chain No. 901 | Sugar chain No. 902 | Sugar chain No. 903 | Sugar chain No. 905 | Sugar chain No. 906 | Sugar chain No. 907
